Data: patent US12187772 (Regeneron, dated 2025)

T1: IL10 receptor (IL10 receptor subunit alpha IL10Ra and beta subunit IL10Rb) on Ramos/STAT3-Luc and … (UniProt Q13651 22-578; Q08334 20-325, limits assumed)
T1 sequence (looked up) 1: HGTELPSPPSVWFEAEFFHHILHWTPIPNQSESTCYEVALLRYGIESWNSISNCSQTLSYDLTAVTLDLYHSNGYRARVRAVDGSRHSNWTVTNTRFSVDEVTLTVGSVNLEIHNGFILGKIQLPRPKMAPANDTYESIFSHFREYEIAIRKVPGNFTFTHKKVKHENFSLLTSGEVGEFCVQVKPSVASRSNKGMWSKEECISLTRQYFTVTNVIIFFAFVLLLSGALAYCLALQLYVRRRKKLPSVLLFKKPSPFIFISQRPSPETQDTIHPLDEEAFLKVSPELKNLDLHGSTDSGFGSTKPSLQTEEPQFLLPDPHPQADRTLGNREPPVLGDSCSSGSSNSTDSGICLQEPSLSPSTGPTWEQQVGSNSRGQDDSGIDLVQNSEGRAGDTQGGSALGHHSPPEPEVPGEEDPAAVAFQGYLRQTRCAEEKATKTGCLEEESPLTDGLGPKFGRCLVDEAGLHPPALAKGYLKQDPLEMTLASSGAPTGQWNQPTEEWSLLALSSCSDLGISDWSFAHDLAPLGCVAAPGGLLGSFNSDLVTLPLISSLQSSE
T1 sequence (looked up) 2: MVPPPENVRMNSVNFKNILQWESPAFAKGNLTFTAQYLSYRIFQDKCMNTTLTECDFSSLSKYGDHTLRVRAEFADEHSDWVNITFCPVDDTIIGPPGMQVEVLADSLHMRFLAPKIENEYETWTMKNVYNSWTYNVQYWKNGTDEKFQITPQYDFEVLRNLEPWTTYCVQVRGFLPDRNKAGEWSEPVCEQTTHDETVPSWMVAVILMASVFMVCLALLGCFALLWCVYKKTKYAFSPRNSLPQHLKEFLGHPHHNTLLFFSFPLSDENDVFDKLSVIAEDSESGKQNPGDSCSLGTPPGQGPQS


Molecular target: T1, IL10 receptor (IL10 receptor subunit …)
Assay: cell-based or functional assay

| Binder | EC50 of luciferase activity, Ramos/Stat3-Luc reporter cells | EC50 of luciferase activity, TF-1/Stat3-Luc reporter cells | Fold Induction of luciferase activity, Ramos/Stat3-Luc reporter cells | Fold Induction of luciferase activity, TF-1/Stat3-Luc reporter cells |
| --- | --- | --- | --- | --- |
| IL10M5 (Fc-1XG4S-hIL10; Fc is IgG4s) (Fc fusion) ESKYGPPCPPCPAPPVAGPSVFLFPPKPKDTLMISRTPEVTCVVVDVSQEDPEVQFNWYVDGVEVHNAKTKPREEQFNSTYRVVSVLTVLHQDWLNGKEYKCKVSNKGLPSSIEKTISKAKGQPREPQVYTLPPSQEEMTKNQVSLTCLVKGFYPSDIAVEWESNGQPENNYKTTPPVLDSDGSFFLYSRLTVDKSRWQEGNVFSCSVMHEALHNHYTQKSLSLSLGKGGGGSSPGQGTQSENSCTHFPGNLPNMLRDLRDAFSRVKTFFQMKDQLDNLLLKESLLEDFKGYLGCQALSEMIQFYLEEVMPQAENQDPDIKAHVNSLGENLKTLRLRLRRCHRFLPCENKSKAVEQVKNAFNKLQEKGIYKAMSEFDIFINYIEAYMTMKIRN | 0.127 nM | 0.146 nM | 3.81 fold | 3.4 fold |
| IL10M4 (Fc-2XG4S-hIL10; Fc is IgG4s) (Fc fusion) ESKYGPPCPPCPAPPVAGPSVFLFPPKPKDTLMISRTPEVTCVVVDVSQEDPEVQFNWYVDGVEVHNAKTKPREEQFNSTYRVVSVLTVLHQDWLNGKEYKCKVSNKGLPSSIEKTISKAKGQPREPQVYTLPPSQEEMTKNQVSLTCLVKGFYPSDIAVEWESNGQPENNYKTTPPVLDSDGSFFLYSRLTVDKSRWQEGNVFSCSVMHEALHNHYTQKSLSLSLGKGGGGSGGGGSSPGQGTQSENSCTHFPGNLPNMLRDLRDAFSRVKTFFQMKDQLDNLLLKESLLEDFKGYLGCQALSEMIQFYLEEVMPQAENQDPDIKAHVNSLGENLKTLRLRLRRCHRFLPCENKSKAVEQVKNAFNKLQEKGIYKAMSEFDIFINYIEAYMTMKIRN | 0.115 nM | 0.138 nM | 4.06 fold | 3.78 fold |
| IL10M6 (hIL10-2XG4S-Fc; Fc is IgG4s) (Fc fusion) SPGQGTQSENSCTHFPGNLPNMLRDLRDAFSRVKTFFQMKDQLDNLLLKESLLEDFKGYLGCQALSEMIQFYLEEVMPQAENQDPDIKAHVNSLGENLKTLRLRLRRCHRFLPCENKSKAVEQVKNAFNKLQEKGIYKAMSEFDIFINYIEAYMTMKIRNGGGGSGGGGSESKYGPPCPPCPAPPVAGPSVFLFPPKPKDTLMISRTPEVTCVVVDVSQEDPEVQFNWYVDGVEVHNAKTKPREEQFNSTYRVVSVLTVLHQDWLNGKEYKCKVSNKGLPSSIEKTISKAKGQPREPQVYTLPPSQEEMTKNQVSLTCLVKGFYPSDIAVEWESNGQPENNYKTTPPVLDSDGSFFLYSRLTVDKSRWQEGNVFSCSVMHEALHNHYTQKSLSLSLGK | 0.127 nM | 0.361 nM | 3.02 fold | 2.66 fold |
